The supplement of paper PMC11246515
± gives the standard deviation of the averaged measurements.

Assay: total protein half-life in vivo (active degradation + dilution); higher = more stable protein
[1] = E. coli NCM3722 delta-clpP delta-lon delta-hslV, growth: N-lim chemostat, doubling time 6 h
[2] = E. coli NCM3722 delta-clpP, growth: N-lim chemostat, doubling time 6 h
[3] = E. coli NCM3722 delta-hslV, growth: N-lim chemostat, doubling time 6 h
[4] = E. coli NCM3722 delta-smpB, growth: N-lim chemostat, doubling time 6 h
[5] = wild type E. coli NCM3722, growth: C-lim chemostat, doubling time 3 h
[6] = wild type E. coli NCM3722, growth: C-lim chemostat, doubling time 6 h
[7] = wild type E. coli NCM3722, growth: C-lim chemostat, doubling time 12 h
[8] = wild type E. coli NCM3722, growth: N-lim chemostat, doubling time 6 h
[9] = wild type E. coli NCM3722, growth: N-lim chemostat, doubling time 12 h
[10] = wild type E. coli NCM3722, growth: P-lim chemostat, doubling time 6 h
[11] = wild type E. coli NCM3722, growth: P-lim chemostat, doubling time 12 h
[12] = E. coli NCM3722 delta-lon, growth: N-lim chemostat, doubling time 6 h

Sequence	total protein half-life in vivo [1]	total protein half-life in vivo [2]	total protein half-life in vivo [3]	total protein half-life in vivo [4]	total protein half-life in vivo [5]	total protein half-life in vivo [6]	total protein half-life in vivo [7]	total protein half-life in vivo [8]	total protein half-life in vivo [9]	total protein half-life in vivo [10]	total protein half-life in vivo [11]	total protein half-life in vivo [12]
MGNNLLSAKATLPVYDLNNLAPRIVHLGFGAFHRAHQGVYADILATEHFSDWGYYEVNLIGGEQQIADLQQQDNLYTVAEMSADVWTARVVGVVKKALHVQIDGLETVLAAMCEPQIAIVSLTITEKGYFHSPATGQLMLDHPMVAADVQNPHQPKTATGVIVEALARRKAAGLPAFTVMSCDNMPENGHVMRDVVTSYAQAVDVKLAQWIEDNVTFPSTMVDRIVPAVTEDTLAKIEQLTGVRDPAGVACEPFRQWVIEDNFVAGRPEWEKAGAELVSDVLPYEEMKLRMLNGSHSFLAYLGYLAGYQHINDCMEDEHYRYAAYGLMLQEQAPTLKVQGVDLQDYANRLIARYSNPALRHRTWQIAMDGSQKLPQRMLDSVRWHLAHDSKFDLLALGVAGWMRYVGGVDEQGNPIEISDPLLPVIQKAVQSSAEGKARVQSLLAIKAIFGDDLPDNSLFTARVTETYLSLLAHGAKATVAKYSVK	5.14 ± 0.34 h	3.3 ± 0.17 h	3.4445 ± 0.0012 h	2.77 ± 0.18 h	1.95 ± 0.0085 h	4.22 h	6.21 ± 3.1 h	3.63 ± 0.19 h	5.47 ± 0.58 h	3.61 ± 0.7 h	7.36 ± 0.28 h	
MGNNLMQTDLSVWGMYQHADIVVKCVMIGLILASVVTWAIFFSKSVEFFNQKRRLKREQQLLAEARSLNQANDIAADFGSKSLSLHLLNEAQNELELSEGSDDNEGIKERTSFRLERRVAAVGRQMGRGNGYLATIGAISPFVGLFGTVWGIMNSFIGIAQTQTTNLAVVAPGIAEALLATAIGLVAAIPAVVIYNVFARQIGGFKAMLGDVAAQVLLLQSRDLDLEASAAAHPVRVAQKLRAG [P0ABU7]	6.15 ± 0.21 h	6.38 ± 2.2 h		1.58 ± 1 h	1.68 ± 0.17 h	1.99 h	3.22 h			1.38 h	3.56 h	
MGQQKQRNRRWVLASRPHGAPVPENFRLEEDDVATPGEGQVLLRTVYLSLDPYMRGRMSDEPSYSPPVDIGGVMVGGTVSRVVESNHPDYQSGDWVLGYSGWQDYDISSGDDLVKLGDHPQNPSWSLGVLGMPGFTAYMGLLDIGQPKEGETLVVAAATGPVGATVGQIGKLKGCRVVGVAGGAEKCRHATEVLGFDVCLDHHADDFAEQLAKACPKGIDIYYENVGGKVFDAVLPLLNTSARIPVCGLVSSYNATELPPGPDRLPLLMATVLKKRIRLQGFIIAQDYGHRIHEFQREMGQWVKEDKIHYREEITDGLENAPQTFIGLLKGKNFGKVVIRVAGDD	4.9643 ± 0.002 h	5.13 ± 1.2 h	5.03 ± 0.36 h	4.16 ± 0.6 h	3.3 ± 0.29 h	5.53 ± 0.19 h	10.3 ± 1 h	4.48 ± 0.35 h	7.42 ± 0.32 h	5.59 ± 0.22 h	10.9 ± 0.62 h	4.74 ± 0.34 h
MGQSKKLNKQPSSLSPLVQLAGIRKCFDGKEVIPQLDLTINNGEFLTLLGPSGCGKTTVLRLIAGLETVDSGRIMLDNEDITHVPAENRYVNTVFQSYALFPHMTVFENVAFGLRMQKTPAAEITPRVMEALRMVQLETFAQRKPHQLSGGQQQRVAIARAVVNKPRLLLLDESLSALDYKLRKQMQNELKALQRKLGITFVFVTHDQEEALTMSDRIVVMRDGRIEQDGTPREIYEEPKNLFVAGFIGEINMFNATVIERLDEQRVRANVEGRECNIYVNFAVEPGQKLHVLLRPEDLRVEEINDDNHAEGLIGYVRERNYKGMTLESVVELENGKMVMVSEFFNEDDPDFDHSLDQKMAINWVESWEVVLADEEHK	7.21 ± 0.97 h		5.83 ± 0.062 h	5.77 ± 0.36 h	3.46 ± 0.65 h	6.55 ± 0.38 h	11.9 ± 0.32 h		12.2 ± 0.83 h	6.41 ± 0.34 h	13.4 ± 0.35 h	5.7 ± 0.78 h
MGQVLPLVTRQGDRIAIVSGLRTPFARQATAFHGIPAVDLGKMVVGELLARSEIPAEVIEQLVFGQVVQMPEAPNIAREIVLGTGMNVHTDAYSVSRACATSFQAVANVAESLMAGTIRAGIAGGADSSSVLPIGVSKKLARVLVDVNKARTMSQRLKLFSRLRLRDLMPVPPAVAEYSTGLRMGDTAEQMAKTYGITREQQDALAHRSHQRAAQAWSDGKLKEEVMTAFIPPYKQPLVEDNNIRGNSSLADYAKLRPAFDRKHGTVTAANSTPLTDGAAAVILMTESRAKELGLVPLGYLRSYAFTAIDVWQDMLLGPAWSTPLALERAGLTMSDLTLIDMHEAFAAQTLANIQLLGSERFAREALGRAHATGEVDDSKFNVLGGSIAYGHPFAATGARMITQTLHELRRRGGGFGLVTACAAGGLGAAMVLEAE		5.81 ± 0.29 h	5.7 ± 0.78 h	5.43 ± 0.24 h	2.94 ± 0.14 h	6.16 ± 0.1 h	12.3 ± 1.9 h	6.23 ± 0.13 h	12 ± 0.41 h	6.44 ± 0.075 h		6.04 ± 0.061 h
MGRISSGGMMFKAITTVAALVIATSAMAQDDLTISSLAKGETTKAAFNQMVQGHKLPAWVMKGGTYTPAQTVTLGDETYQVMSACKPHDCGSQRIAVMWSEKSNQMTGLFSTIDEKTSQEKLTWLNVNDALSIDGKTVLFAALTGSLENHPDGFNFK [P0AD59]	5.34 ± 0.85 h	5.71 ± 1 h	6.18 ± 0.25 h				9.68 ± 1.2 h	5.85 ± 0.58 h	12.6 ± 0.36 h	5.4 ± 0.3 h	12.9 ± 1 h	6.285 ± 0.011 h
